{"source": "paper PMC6668441", "about": "“Comparative Study of Subcutaneous and Orthotopic Mouse Models of Prostate Cancer: Vascular Perfusion, Vasculature Density, Hypoxic Burden and BB2r-Targeting Efficacy” (Scientific Reports, 2019)", "key": {"[1]": {"test": "Biodistribution, BB2r-targeted uptake, subcutaneous PC-3 xenograft model", "settings": "female, NOD SCID, mouse, iv, total radioactivity, 1 h 5 min p.i., mean ± SD; for dose excreted at 65 min: urine and faeces, excretion (urine and fecal material)"}, "[2]": {"test": "Biodistribution, BB2r-targeted uptake, orthotopic PC-3 xenograft model", "settings": "male, NOD SCID, mouse, blood, iv, 10 uCi, total radioactivity, blood uptake, orthotopic model, 10 µCi i.v., 1 h 5 min p.i., mean ± SD", "protocol": "For the subcutaneous model, 5-week old female SCID mice were inoculated in the flanks with 5 × 10^6 PC-3 cells (American Type Culture Collection (ATCC), VA) in Matrigel®. The tumor size was monitored by caliper. For the generation of the orthotopic model, the PC-3-Luc cells were selected by 0.5 µg/mL puromycin twice before inoculation. The male 6-weeks SCID mice were anesthetized, the muscles of the abdomen area were cut after retracting the skin, and the prostate gland exposed. 50 μL of PC-3-Luc cell suspension at 0.5 × 10^6/mL in Matrigel® was injected into a dorsal prostatic lobe. The wound was closed in two layers and the skin was clipped. Animals were given analgesic drugs for 3 days and the tumors were monitored by an IVIS optical imaging system.\nThe mice were injected, monitored and dissected in the lab with the temperature of 23 °C and 17% relative humidity. All animals were awake until sacrifice. The body weight, tumor volume and tumor luminescence of the mice were recorded every three days. At four-to-seven weeks post-xenograft implantation, the mice were divided into three groups by tumor volume: <300, 300–700 and >700 mm^3 in both animal models. […] Each mouse (average weight: 20 g for female mice and 25 g for male mice) was treated with pimonidazole solution (80 mg/kg in PBS) via intraperitoneal injection. […] After an additional 1 h, the mice were injected intravenously with a PBS solution containing 10 µCi (370 kBq) of [^99mTc]NaTcO4 and 15 mg/kg Hoechst 33342. The animals were sacrificed 5 minutes later, and their tissues collected. The excised tissues were weighed, the radioactivity for each tissue was measured by γ-counter and the percentage injected dose per gram (%ID/g) was calculated for each tissue. […]\nEstablishment of Stably Transfected PC-3-Luc Cells\nTo generate the PC-3-Luc cells, we utilized pre-made lentivirus particles encoding luciferase and GFP (EF1a-Luciferase (firefly)-2A-GFP (Puro), AMSBIO) for transfection. Briefly, normal PC-3 cells were seeded in a 24-well plate using 0.5 mL of medium containing 0.5 × 10^5 cells/mL and incubated overnight. The medium was removed and replaced with 0.5 mL of fresh medium pre-mixed with 2.5 ȝL TransduxTM. To each well was added 2 ȝL of the lentivirus particle solution and swirled to mix. The plate was returned to the incubator and cultured for 3 days. Once the cells grew to confluence, they were harvested and transferred to larger plates (from 6-well plates to 60 mm dishes). 1.5 mL of suspended cells in PBS at a concentration of 5 × 10^6/mL was sorted by the FACS method to give the GFP positive (PC-3-Luc) cells that were returned to culture for in vitro and in vivo studies.\nThe normal PC-3 cells and PC-3-Luc were cultured in our laboratory, as per ATCC protocols, in Ham’s F-12K medium containing 10% FBS, 2.5 mM L-glutamine, 15 mM HEPES and 0.5 mM sodium pyruvate. Cells were incubated at 37 °C […]\nAll animal experiments were performed in accordance with the NIH animal use guideline and protocol approved by the […]"}}}
{"compound": "CSCC[C@H](NC(=O)[C@H](CC(C)C)NC(=O)[C@H](Cc1c[nH]cn1)NC(=O)CNC(=O)[C@@H](NC(=O)[C@H](C)NC(=O)[C@H](Cc1c[nH]c2ccccc12)NC(=O)[C@H](CCC(N)=O)NC(=O)CCOCCOCCOCCOCCNC(=O)[C@@H](CO)NC(=O)[C@@H](CO)NC(=O)[C@@H](CO)NC(=O)[C@@H](CO)NC(=O)[C@@H](CO)NC(=O)CN1CCN(CC(=O)O)CCN(CC(=O)O)CCN(CC(=O)O)CC1)C(C)C)C(N)=O", "note": "[[^177Lu]Lu-DOTA-SP714, metal not drawn]", "values": [{"measurement": "tissue uptake at 65 min", "setting": "[1]; blood, 10 uCi, blood uptake, tumor volume 300-700 mm^3, 10 µCi i.v.", "result": "0.78 ± 0.81", "unit": "%ID/g"}, {"measurement": "tissue uptake at 65 min", "setting": "[1]; blood, 10 uCi, blood uptake, tumor volume <300 mm^3, 10 µCi i.v.", "result": "0.49 ± 0.4", "unit": "%ID/g"}, {"measurement": "tissue uptake at 65 min", "setting": "[1]; blood, 10 uCi, blood uptake, tumor volume >700 mm^3, 10 µCi i.v.", "result": "2.27 ± 0.6", "unit": "%ID/g"}, {"measurement": "tissue uptake at 65 min", "setting": "[1]; bone, 10 uCi, bone uptake, tumor volume 300-700 mm^3, 10 µCi i.v.", "result": "0.26 ± 0.19", "unit": "%ID/g"}, {"measurement": "tissue uptake at 65 min", "setting": "[1]; bone, 10 uCi, bone uptake, tumor volume <300 mm^3, 10 µCi i.v.", "result": "0.2 ± 0.12", "unit": "%ID/g"}, {"measurement": "tissue uptake at 65 min", "setting": "[1]; bone, 10 uCi, bone uptake, tumor volume >700 mm^3, 10 µCi i.v.", "result": "0.67 ± 0.07", "unit": "%ID/g"}, {"measurement": "tissue uptake at 65 min", "setting": "[1]; brain, 10 uCi, brain uptake, tumor volume 300-700 mm^3, 10 µCi i.v.", "result": "0.03 ± 0.01", "unit": "%ID/g"}, {"measurement": "tissue uptake at 65 min", "setting": "[1]; brain, 10 uCi, brain uptake, tumor volume <300 mm^3, 10 µCi i.v.", "result": "0.03 ± 0.02", "unit": "%ID/g"}, {"measurement": "tissue uptake at 65 min", "setting": "[1]; brain, 10 uCi, brain uptake, tumor volume >700 mm^3, 10 µCi i.v.", "result": "0.09 ± 0.05", "unit": "%ID/g"}, {"measurement": "tissue uptake at 65 min", "setting": "[1]; heart, 10 uCi (370 kBq), heart uptake, tumor volume 300-700 mm^3, 10 µCi i.v.", "result": "0.16 ± 0.03", "unit": "%ID/g"}, {"measurement": "tissue uptake at 65 min", "setting": "[1]; heart, 10 uCi (370 kBq), heart uptake, tumor volume >700 mm^3, 10 µCi i.v.", "result": "0.68 ± 0.48", "unit": "%ID/g"}, {"measurement": "tissue uptake at 65 min", "setting": "[1]; heart, 10 uCi, heart uptake, tumor volume <300 mm^3, 10 µCi i.v.", "result": "0.16 ± 0.05", "unit": "%ID/g"}, {"measurement": "tissue uptake at 65 min", "setting": "[1]; kidney, 10 uCi, kidney uptake, tumor volume 300-700 mm^3, 10 µCi i.v.", "result": "2.59 ± 1.02", "unit": "%ID/g"}, {"measurement": "tissue uptake at 65 min", "setting": "[1]; kidney, 10 uCi, kidney uptake, tumor volume <300 mm^3, 10 µCi i.v.", "result": "2.75 ± 1.29", "unit": "%ID/g"}, {"measurement": "tissue uptake at 65 min", "setting": "[1]; kidney, 10 uCi, kidney uptake, tumor volume >700 mm^3, 10 µCi i.v.", "result": "6.64 ± 2.83", "unit": "%ID/g"}, {"measurement": "tissue uptake at 65 min", "setting": "[1]; large intestine, 10 uCi, large intestine uptake, tumor volume 300-700 mm^3, 10 µCi i.v.", "result": "2.63 ± 2.12", "unit": "%ID/g"}, {"measurement": "tissue uptake at 65 min", "setting": "[1]; large intestine, 10 uCi, large intestine uptake, tumor volume <300 mm^3, 10 µCi i.v.", "result": "1.38 ± 0.75", "unit": "%ID/g"}, {"measurement": "tissue uptake at 65 min", "setting": "[1]; large intestine, 10 uCi, large intestine uptake, tumor volume >700 mm^3, 10 µCi i.v.", "result": "3.75 ± 2.89", "unit": "%ID/g"}, {"measurement": "tissue uptake at 65 min", "setting": "[1]; liver, 10 uCi, liver uptake, tumor volume 300-700 mm^3, 10 µCi i.v.", "result": "0.31 ± 0.06", "unit": "%ID/g"}, {"measurement": "tissue uptake at 65 min", "setting": "[1]; liver, 10 uCi, liver uptake, tumor volume <300 mm^3, 10 µCi i.v.", "result": "0.29 ± 0.12", "unit": "%ID/g"}, {"measurement": "tissue uptake at 65 min", "setting": "[1]; liver, 10 uCi, liver uptake, tumor volume >700 mm^3, 10 µCi i.v.", "result": "0.9 ± 0.49", "unit": "%ID/g"}, {"measurement": "tissue uptake at 65 min", "setting": "[1]; lung, 10 uCi (370 kBq), lung uptake, tumor volume 300-700 mm^3, 10 µCi i.v.", "result": "0.64 ± 0.39", "unit": "%ID/g"}, {"measurement": "tissue uptake at 65 min", "setting": "[1]; lung, 10 uCi (370 kBq), lung uptake, tumor volume <300 mm^3, 10 µCi i.v.", "result": "1.08 ± 1.55", "unit": "%ID/g"}, {"measurement": "tissue uptake at 65 min", "setting": "[1]; lung, 10 uCi, lung uptake, tumor volume >700 mm^3, 10 µCi i.v.", "result": "1.39 ± 0.67", "unit": "%ID/g"}, {"measurement": "tissue uptake at 65 min", "setting": "[1]; muscle, 10 uCi, muscle uptake, tumor volume 300-700 mm^3, 10 µCi i.v.", "result": "0.15 ± 0.07", "unit": "%ID/g"}, {"measurement": "tissue uptake at 65 min", "setting": "[1]; muscle, 10 uCi, muscle uptake, tumor volume <300 mm^3, 10 µCi i.v.", "result": "0.17 ± 0.12", "unit": "%ID/g"}, {"measurement": "tissue uptake at 65 min", "setting": "[1]; muscle, 10 uCi, muscle uptake, tumor volume >700 mm^3, 10 µCi i.v.", "result": "0.46 ± 0.24", "unit": "%ID/g"}, {"measurement": "tissue uptake at 65 min", "setting": "[1]; pancreas, 10 uCi, pancreas uptake, tumor volume 300-700 mm^3, 10 µCi i.v.", "result": "23.8 ± 8.43", "unit": "%ID/g"}, {"measurement": "tissue uptake at 65 min", "setting": "[1]; pancreas, 10 uCi, pancreas uptake, tumor volume <300 mm^3, 10 µCi i.v.", "result": "19.4 ± 13", "unit": "%ID/g"}, {"measurement": "tissue uptake at 65 min", "setting": "[1]; pancreas, 10 uCi, pancreas uptake, tumor volume >700 mm^3, 10 µCi i.v.", "result": "22.6 ± 7.83", "unit": "%ID/g"}, {"measurement": "tissue uptake at 65 min", "setting": "[1]; small intestine, 10 uCi, small intestine uptake, tumor volume 300-700 mm^3, 10 µCi i.v.", "result": "2.82 ± 1.14", "unit": "%ID/g"}, {"measurement": "tissue uptake at 65 min", "setting": "[1]; small intestine, 10 uCi, small intestine uptake, tumor volume <300 mm^3, 10 µCi i.v.", "result": "2.53 ± 1.39", "unit": "%ID/g"}, {"measurement": "tissue uptake at 65 min", "setting": "[1]; small intestine, 10 uCi, small intestine uptake, tumor volume >700 mm^3, 10 µCi i.v.", "result": "4.21 ± 1.92", "unit": "%ID/g"}, {"measurement": "tissue uptake at 65 min", "setting": "[1]; spleen, 10 uCi, spleen uptake, tumor volume 300-700 mm^3, 10 µCi i.v.", "result": "2.53 ± 1.31", "unit": "%ID/g"}, {"measurement": "tissue uptake at 65 min", "setting": "[1]; spleen, 10 uCi, spleen uptake, tumor volume <300 mm^3, 10 µCi i.v.", "result": "1.46 ± 1.32", "unit": "%ID/g"}, {"measurement": "tissue uptake at 65 min", "setting": "[1]; spleen, 10 uCi, spleen uptake, tumor volume >700 mm^3, 10 µCi i.v.", "result": "3.02 ± 0.63", "unit": "%ID/g"}, {"measurement": "tissue uptake at 65 min", "setting": "[1]; stomach, 10 uCi, stomach uptake, tumor volume 300-700 mm^3, 10 µCi i.v.", "result": "1.68 ± 0.85", "unit": "%ID/g"}, {"measurement": "tissue uptake at 65 min", "setting": "[1]; stomach, 10 uCi, stomach uptake, tumor volume <300 mm^3, 10 µCi i.v.", "result": "0.94 ± 0.53", "unit": "%ID/g"}, {"measurement": "tissue uptake at 65 min", "setting": "[1]; stomach, 10 uCi, stomach uptake, tumor volume >700 mm^3, 10 µCi i.v.", "result": "4.89 ± 3.52", "unit": "%ID/g"}, {"measurement": "tissue uptake at 65 min", "setting": "[1]; tumor, 10 uCi, tumor uptake, tumor volume 300-700 mm^3, 10 µCi i.v.", "result": "5.35 ± 1.75", "unit": "%ID/g"}, {"measurement": "tissue uptake at 65 min", "setting": "[1]; tumor, 10 uCi, tumor uptake, tumor volume <300 mm^3, 10 µCi i.v.", "result": "4.16 ± 1.74", "unit": "%ID/g"}, {"measurement": "tissue uptake at 65 min", "setting": "[1]; tumor, 10 uCi, tumor uptake, tumor volume >700 mm^3, 10 µCi i.v.", "result": "9.44 ± 3.66", "unit": "%ID/g"}, {"measurement": "dose excreted at 65 min", "setting": "[1]; 10 uCi, tumor volume 300-700 mm^3, 10 µCi i.v.", "result": "73.2 ± 7", "unit": "%"}, {"measurement": "dose excreted at 65 min", "setting": "[1]; 10 uCi, tumor volume <300 mm^3, 10 µCi i.v.", "result": "68.5 ± 23.4", "unit": "%"}, {"measurement": "dose excreted at 65 min", "setting": "[1]; 10 uCi, tumor volume >700 mm^3, 10 µCi i.v.", "result": "59 ± 12.4", "unit": "%"}, {"measurement": "tissue uptake at 65 min", "setting": "[2]; tumor volume 300-700 mm^3", "result": "0.33 ± 0.14", "unit": "%ID/g"}, {"measurement": "tissue uptake at 65 min", "setting": "[2]; tumor volume <300 mm^3", "result": "0.27 ± 0.19", "unit": "%ID/g"}]}
